Reference: the nanobody polyreactivity screen of Harvey et al. (2022)

Experiment: yeast display, Sf9 membrane polyspecificity reagent, FACS + sequencing; frameworks hold sequencing errors
Summary of the method: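 Polyreactivity labels are assigned by the sorting gate from which each nanobody was recovered. The gates were low and high (top ~1%), set on anti-HA fluorescence for expression and streptavidin fluorescence for reagent binding. Before sorting, galactose-induced (36–48 hours) yeast display cells were stained for 1 hour at 4 °C with 10% biotinylated, detergent-solubilized Sf9 membrane reagent.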

Row | Sequence | polyreactivity (PSR sort gate)
1 | QVQLVESGGGLVQAGGSLRLSCAASGITFYGYAMGWYRPAPGKERELVAVITSTARTNYADSVNGRFTISRDNAKNTVYLQMNSLKPEDTAVYYCAAVHSSYSFNYWGQGTQVTVSS | high polyreactivity
2 | QVQLVESGGGLVQAGGSLRLSCAASGITFYGYAMGWYRQAPGKERELVARISSGGTTKYADSVKGRFTISRDNAKNTVYLQMNSLKPEDTAGYYCAVGGSWWYYGFYYWGQGTQVSVSS | high polyreactivity
3 | QVQLVESGGGLVQAGGSLRLSCAASGITFYIYAMGWYRQAPGKERELVAAITWGGDGSTRYADSVKGRFTISRDNAKNTVYLQMNSLKPEDTAVYYCAGGSTFVLFDDMDYWGQGTQVTVSS | low polyreactivity
4 | QVQLVESGGGLVQAGGSLRLSCAASGITFYIYAMGWYRQAPGKERELVATISWSDGRTYYADSVKGRITISRDNAKNTVYLQMNSLKPEDTAVYYCAADWWYYQFDYEYWGQGTQVTVSS | low polyreactivity
5 | QVQLVESGGGLVQAGGSLRLSCAASGITFYLNAMGWYRQAPGKERELVADITVSGGSTYYADSVKGRFTISRDTAKNTVYLQMNSLIPEDTAVYYCAADLTISYSQEYYYWGQGTQVTVSS | low polyreactivity
6 | QVQLVESGGGLVQAGGSLRLSCAASGITFYLYAMGWYRQAPGKERELVAAISRIGGSTYYADSVKGRFTISRDNAKNTVYLQMNSLKPEDTAVYYCATYYGGSGYDYWGQGTQVTVSS | high polyreactivity
7 | QVQLVESGGGLVQAGGSLRLSCAASGITFYLYDMGWYRQAPGIERELVASITSDGSTDYADSVKGRFTISRDNAKNTVYLQMNSLKPEDTAVYYCNARVTYSWYRFGRSGDDSWGHGTQVTVSS | low polyreactivity
8 | QVQLVESGGGLVQAGGSLRLSCAASGITFYNSAMGLYRQAPGKERELVAAISSSGGSTYYADSVKGRFTISRDNAKNTVYLQMNSLKPEDTAVYYCAAVIVLSSEDTYYYWGQGTQVTVSS | high polyreactivity
9 | QVQLVESGGGLVQAGGSLRLSCAASGITFYPNGMGWYRQAPGKEREFVAAITSSGGSTYYADSVKGRFRISRDNAKNTLYLQMNSLKPEDTAVYYCAAQYYPISYYGYGYWGQGTQVTVSS | low polyreactivity
10 | QVQLVESGGGLVQAGGSLRLSCAASGITFYQYALGWYRQAPGKERELVARISYSGGSTYADSVKGRFTISRDNAKNTVYLQMNSLKPEDTAVYYCATAYRFRYGFANRYDYWGQGTQVTVSS | low polyreactivity
11 | QVQLVESGGGLVQAGGSLRLSCAASGITFYRYAMGWYRPAPGKERELVAAISSSGGSTYYADSVKGRFTISRDNAKNSVYLQMNRLKPEDTAVYYCNAVVQNPQEYDYWGQGTQVTVSS | high polyreactivity
12 | QVQLVESGGGLVQAGGSLRLSCAASGITFYRYAMGWYRQAPGKERELVAAISKRGGTTYYADSVKGRFTISRDNAKNTVYLQMNSLKPEDTAVYYCNKAKTAYRGQYDYWGQGTQVTVSS | high polyreactivity
13 | QVQLVESGGGLVQAGGSLRLSCAASGITFYRYAMGWYRQAPGKERELVAAITSGGGRTYYADSVKGRFTISRDNAKNTVYLQMNSLKPEDTAVYYCNAADYTAYGQGEYWGQGTQVTVSS | high polyreactivity
14 | QVQLVESGGGLVQAGGSLRLSCAASGITFYRYAVGWYRQAPGKERELVAAISCRGGRTYYADSVKGRFTISRDNAKKTVYLQMISLKPEDTAVDYCAAVASRIRGWLDITAYDYWGQGTQVTVSS | high polyreactivity
15 | QVQLVESGGGLVQAGGSLRLSCAASGITFYRYMGWYRQAPGKERELVASITGRGGSTYYADSVKGRFTISRDNAKNTVYLQMNSLKPEDTAVYYCAAVFPTKSSTWYDYWGQGSQVTVSS | high polyreactivity
16 | QVQLVESGGGLVQAGGSLRLSCAASGITFYRYVMGWYRQAPGKERELVAAISDSTGSTYYADSVKGRFTISRDNAKNTVYLQMNSLKPEDTAVYYCAAGWFYATYWRFYYWGQGTQVTVSS | low polyreactivity
17 | QVQLVESGGGLVQAGGSLRLSCAASGITFYTYAMGWYRQAPGKERELDAAITCSGGRTYYADSVKGRFTISRDNAKNSVYLQMNSLKPEDTAVYYCAALYVYRPRTPYGYWGQGTQVNVSS | high polyreactivity
18 | QVQLVESGGGLVQAGGSLRLSCAASGITFYVYAMGWYRQAPGKERELVAAISRRGGSTSYADSVKGRFTISRDNAKNTVYLQMNSLKPEDTAVYYCAAGPFYGGIVRRYDYWGQGTQVTVSS | low polyreactivity
19 | QVQLVESGGGLVQAGGSLRLSCAASGITFYYNAMGWYRQAPGKERELVAAIRSAGSTYYADSVKGRFTISRDNAKNTVYLQMNSLKPEDTAVYYCAAEDGNTDQVRVYWIMDYWGQGTQVTVSS | low polyreactivity
20 | QVQLVESGGGLVQAGGSLRLSCAASGITFYYTMGWYRQAPGKERELVATISYDGTSTYYADSVKGRFTISRHNEKNTVYLHMNSLKPEDTAVYYSSAYGTVVTLNDYWGQGTQVTVSS | low polyreactivity
21 | QVQLVESGGGLVQAGGSLRLSCAASGITFYYYAKGWYRQAPGKEREFVAAINWSGTSTYYADSVKGRFTISRDNAKNTVYLQMNSLKPEDTAVYYCNAERGRSFWWAYDYWGQGTQVTVSS | low polyreactivity
22 | QVQLVESGGGLVQAGGSLRLSCAASGITFYYYAMGWYRQAPGKERELVAAINSGGITNYADSVKGRFTISRDNAKNTVYLQMNSLKPEDTAVYYCAASSGFRYRYGYWGQGTQVTVSS | high polyreactivity

Row | Sequence | polyreactivity (PSR sort gate)
23 | QVQLVESGGGLVQAGGSLRLSCAASGITFYYYAMGWYRQAPGKERELVAAISFRGGSTYYADSVKGRFTISRDNAKNTVYLQMNSLIPEDTAVYYCAAETSPSWYTWVTYDYWGQGTQVTVSS | high polyreactivity
24 | QVQLVESGGGLVQAGGSLRLSCAASGITFYYYAMGWYRQAPGKERELVAAISFRGGSTYYADSVKGRFTISRDNAKNTVYLQMNSLKPEDTAVYYCAKAWSYTDPPRGDYWGQGTQVTVSS | high polyreactivity
25 | QVQLVESGGGLVQAGGSLRLSCAASGITFYYYAMGWYRQAPGKERELVAAITVNGGTTYYADSVKGRFTISRDNAKNTVYLQMNSLKPEDTAVYYCNADGTFEYDYWGQGTQVTVSS | low polyreactivity
26 | QVQLVESGGGLVQAGGSLRLSCAASGITFYYYAMRWYRQAPGKERELVAAISRGGSTYYADSVKGRFTISCDNAKNTVYLQMNSLKPEDTAVYYCNAYTTGYLFGYWGQGTQVTVSS | high polyreactivity
27 | QVQLVESGGGLVQAGGSLRLSCAASGITFYYYGMGWYRQAPGKERELVAAITTGGNTNYADSVKGRFTISRDNAKNTVYLQMNSLKPEDTAVYYCAAEYRIPYFFTYGYWGQGTQVTVSS | high polyreactivity
28 | QVQLVESGGGLVQAGGSLRLSCAASGITIDYYAMGWYRQAPGKERELVAAISSVGNTNYADSVKGRFTISRDNAKNTVYLQMNSLKPEDTAVYYCAARAYGQRLYRVWSGYGYWGQGTQVTVSS | high polyreactivity
29 | QVQLVESGGGLVQAGGSLRLSCAASGITIIHNAMGWYRQAPGKERELVAAITTSDGSTYYADSVKGRFTISRDNAKNTVYLQMNSLKPEDTAVYYCAARGRHSGYYSFPYYYWGQGTQVTVSS | low polyreactivity
30 | QVQLVESGGGLVQAGGSLRLSCAASGITIVLYAMGWYRQAPGKERELVAAINIDGNTNYADSVKGRFTISRDNAKNTVYLQMNSLKPEDTAVYYCATYYYYPSWYLLYGEYNYWGQGTQVTVSS | low polyreactivity
31 | QVQLVESGGGLVQAGGSLRLSCAASGITIYKYAMGWYRQAPGKERELVAAITRGGSTYYADSVKGRFTISRDNAKNSVYLQMNSLKPEDTAVYYCNKVYHWQTPGFGYGYWGQGTQVTVSS | high polyreactivity
32 | QVQLVESGGGLVQAGGSLRLSCAASGITLEVYAMGWYRQAPGKERELVAAITDSGGRTYYADSVKGRFTISRDNAKNTVYLQMNSLKPEDTAVYYCAADDTRVYGAGEYWGQGTQVTVSS | low polyreactivity
33 | QVQLVESGGGLVQAGGSLRLSCAASGITLGYYAMGWYRQAPGKERELVAAISYRGGNTYYADSVKGRFTISRDNAMKTVYLQMNSLKPEDSAVYYCAAYDEYYGYDYWGQGTQVTVSS | low polyreactivity
34 | QVQLVESGGGLVQAGGSLRLSCAASGITLKKYAMVWYRQAPGKERELVAAISIRGTSTYYADSVKGRFTISRDNAKNSVFLQMNSLKPEDTAVYYFAALYVVGDVRSGYWGQCTQVTVSS | high polyreactivity
35 | QVQLVESGGGLVQAGGSLRLSCAASGITLLGNTMGWYRQAPGKERELVAAIRTNSGRTYYADSVKGRFTISRDNAKNTVYLQMNSLKPEDTAVYYCAKRYFSYLGREMDYWGQGTQVTVSS | high polyreactivity
36 | QVQLVESGGGLVQAGGSLRLSCAASGITLLYYAMGWYRQAPGKERELVAVIDWSGGDTYYADSVKGRFTISRDNAKNTVYLQMNSLKPEDTAVYYCARGSRLVYRRSGFDYWGQGTQVTVSS | low polyreactivity
37 | QVQLVESGGGLVQAGGSLRLSCAASGITLNGYVMRWYRQAPGKEREFVAVISSRGGSTYYADSVKGRFTISRDNAKNTVYLQMNSLKPEDTAVYYCAARYVREYNYWGQGTQVTVSS | high polyreactivity
38 | QVQLVESGGGLVQAGGSLRLSCAASGITLNRNAMGWYRQAPGKERELVARISRRGGTTYYADSVKGRFTISRDNAKNTVYLQMNSLKPEDTAVYYCNAGPYGGNPFDYWGQGTQVTVSS | high polyreactivity
39 | QVQLVESGGGLVQAGGSLRLSCAASGITLPVYGMGWYRQAPGKERELVAVIDIVGITNYADSVKGRFTISRDNAKNTVYLQMNSLKPEDTAVYYCAKRYVDLADGGEYYYWGQGTQVTVSS | low polyreactivity
40 | QVQLVESGGGLVQAGGSLRLSCAASGITLRRNAMGWYRQAPGKERELVAAISKSGGRTYYADSVKGRFTISRDHAKNTVYLQMNSLKPEDTAVYYCAADVPWAASDYWGQGTQVTVSS | high polyreactivity
41 | QVQLVESGGGLVQAGGSLRLSCAASGITLRYYTMGWYRQPPGKERELVADISYRGGSTTYADSVKGRFTISRDNAKNTVYLQMNSLKPEDTAVYYCNARKRTFPSRSIGGDYWGQGTQVTVSS | high polyreactivity
42 | QVQLVESGGGLVQAGGSLRLSCAASGITLSIYAMGWYRQAPGKERELVAAINGNGGSTYYADSVKGRFTISRDNAKNTVYLQMNSLKPEDTAVYYCAVTDYVYEHDDYWGQGTQVTVSS | low polyreactivity
43 | QVQLVESGGGLVQAGGSLRLSCAASGITLTKNAMGWYRQAPGKERELVAGITRGSRTNYADSVKGRFTISRDNAKNTVYLQMNSLKPEDTAVYYCAASYGPYRGPVGGSKMYYWGQGTQVTVSS | high polyreactivity
